Biological target: 1-32–captured Pentamer (HCMV Pentamer bound by 1-32 IgG) (human cytomegalovirus (strain Towne) | human) (UniProt P17176)
Test: BLI

B1: untagged NRP2 (receptor)
chain: RGQPDPPCGGRLNSKDAGYITSPGYPQDYPSHQNCEWIVYAPEPNQKIVLNFNPHFEIEKHDCKYDFIEIRDGDSESADLLGKHCGNIAPPTIISSGSMLYIKFTSDYARQGAGFSLRYEIFKTGSEDCSKNFTSPNGTIESPGFPEKYPHNLDCTFTILAKPKMEIILQFLIFDLEHDPLQVGEGDCKYDWLDIWDGIPHVGPLIGKYCGTKTPSELRSSTGILSLTFHTDMAVAKDGFSARYYLVHQEPLENFQCNVPLGMESGRIANEQISASSTYSDGRWTPQQSRLHGDDNGWTPNLDSNKEYLQVDLRFLTMLTAIATQGAISRETQNGYYVKSYKLEVSTNGEDWMVYRHGKNHKVFQANNDATEVVLNKLHAPLLTRFVRIRPQTWHSGIALRLELFGCRVTDAPCSNMLGMLSGLIADSQISASSTQEYLWSPSAARLVSSRSGWFPRIPQAQPGEEWLQVDLGTPKTVKGVIIQGARGGDSITAVEARAFVRKFKVSYSLNGKDWEYIQDPRTQQPKLFEGNMHYDTPDIRRFDPIPAQYVRVYPERWSPAGIGMRLEVLGCDWTDSKPTVETLGPTVKSEETTTPYPTEEEATECGENCSFEDDKDLQLPSGFNCNFDFLEEPCGWMYDHAKWLRTTWASSSSPNDRTFPDDRNFLRLQSDSQREGQYARLISPPVHLPRSPVCMEFQYQATGGRGVALQVVREASQESKLLWVIREDQGGEWKHGRIILPSYDMEYQIVFEGVIGKGRSGEIAIDDIRISTDVPLENCMEPISAFAGENFKVDIPEIHEREGYEDEIDDEYEVDWSNSSSATSGSGAPSTDKEKSWLYTLDPILITIIAMSSLGVLLGATCAGLLLYCTCSYSGLSSRSCTTLENYNFELYDGLKHKVKMNHQKCCSEA
B1 showed a Kd of 133 nM.
